{"source": "patent US8688427B2", "about": "“Enzyme catalysts for diels-alder reactions” (University of Washington, priority 2008, dated 2014)", "format_in_all_cases": "biochemical", "key": {"[1]": {"experiment": "Diels-Alder activity assay with purified protein, LC-MSMS product detection", "settings": "0.1 mM diene, 3 mM dienophile, PBS, 298K, 20 μM protein", "protocol": "The observed velocity for each mutant was normalized by the velocity of DA—20—00 in order to determine the effective rate enhancement conferred by each mutation. The reactions were done at 1 mM diene, and 10 mM dienophile, PBS, 298K, and 100 μM protein.\nMutations showing enhanced activity on DA—20—04 were sequenced, grown large scale, and assayed. The assay was done at 0.1 mM dieine, 3 mM dienophile, PBS, 298K, and 20 μM protein.\nThe Diels-Alder reactions were performed in PBS, at 25° C., with 4% DMSO. The DMSO came from the diene, for which the stock solution (100 mM) was made in DMSO and always diluted such that the final reaction would contain 4% DMSO. After incubation of the desired amount of diene and dienophile in the presence or absence of the protein, time points were taken of the reaction (5 μL) and quenched in a solution of 80:20 acetonitrile:water with 0.1% formic acid and 1 mM Benzoic Acid (95 μL). This reaction was incubated for 5 minutes and then the precipitated protein filtered using a Millipore multiscreen solvinert filter plate (Product Number: MSRLN0450). 20 μL of the filtered quench solution was then injected and analyzed using a liquid chromatography-tandem mass spectroscopy (LC-MSMS) assay.\nA total of 43 variants were assayed using the standard activity assay. The observed activities are described in Table 2. In Table 2, the Expression column provides the number of times the mutant was expressed; the Observed column reports the raw signal level out of the mass-spec for the product (the Observed column is not normalized nor background corrected); the Concentration column provides the concentration of the protein after large-scale expression. […]"}, "Turnover number": {"experiment": "Turnover number", "settings": "high substrate concentrations: 3 mM diene, 100 mM dienophile, 25 μM enzyme, PBS, 298K", "protocol": "The reaction was carried out in 3 mM diene, 100 mM dienophile, 25 μM enzyme, in PBS at 298K. Turnover number was calculated by subtracting the product formed in the background reaction from the product formed in the enzymatic reaction. This enzyme-produced product was then divided by the protein concentration to determine turnover number.\nTo quantify the number of turnovers reached before the DA—20—10 was inactivated, a reaction was setup with 25 μM enzyme, 3 mM diene, 100 mM dienophile in a PBS solution and incubated for 160 hours. Time points were taken, quenched, and filtered, and then analyzed using the liquid chromatography mass-spectroscopy assay. A standard curve ranging from 4 mM to 0.03 mM was used to quantify the amount of product produced."}, "[2]": {"experiment": "Substrate specificity, LC-MS of product peak area formed per hour", "settings": "0.2 mM diene, 10 mM dienophile, 60 μM protein, PBS, 298K", "protocol": "FIG. 19 illustrates the substrate specificity of DA—20—10 and a single mutant of DA—20—10, H287N. Reactions were carried out with 0.2 mM diene 1 (FIG. 1), and 10 mM of one of the six dienophiles depicted in PBS at 298K in the absence or presence of 60 μM DA—20—10 or DA—20—10_H287N. The depicted values in the figure are the mean (bars) and standard deviation (error bars) of four independent measurements of the product peak area (arbitrary units) formed per hour, determined using a liquid chromatography-mass spectroscopy assay.\nTo experimentally determine substrate specificities each dienophile from FIG. 19 was either purchased or synthesized. The dienophiles were assayed in the presence or absence of 60 μM DA—20—10 or the H287N mutant over 30 hours with 10 mM dienophile and 0.2 mM diene at 298K in a PBS solution. A sample of the reaction was taken at four different time points, quenched, and filtered as previously described. To detect product a liquid chromatography-mass spectroscopy assay was used. […] The average area of each detected peak formed per hour was used to determine the relative amount of product formed with and without enzyme.\nBesides stereoselectivity, the level of control over a chemical reaction by a designed enzyme is reflected by its substrate specificity. […] The activity against each of the substrates was measured using a liquid-chromatography mass spectroscopy assay."}}, "data": [{"molecule": "DA_20_10: DA_20_04 with A272N, Q149R, A173C (protein, Enzyme catalyst for Diels-Alder reaction, DA_20_04 with A272N, Q149R, A173C) MEIPVIEPLFTKVTEDIPGATGPVFDKNGDFYIVAPYVEVNGKPAGEILRIDLKTGKKTVICKPEVNGYGGIPIGCQCDRDANQLFVADMRLGLLVVQTDGTFEEIAKKDSEGRRMQGCAYCAFDYEGNLWITAPAGEVAPADFTISLREKFGSIYCFTTDGQMIQVDTAFQCPAGIAVRHMNDGRPYQLIVAEQPTKKLWSYDIKGPAKIENKKVWGHIPGTHKGGAAGMDFDEDNNLLVANWGSSHIEVFGPDGGQPKMRIRCPFEKPANLHFKPQTKTIFVTEHENNAVWKFEWQRNGKKQYCETLKFGIFGSLEHHHHHH", "values": [{"measurement": "product formed per hour", "setting": "[1]", "value": "154.9 nM of product/hour"}, {"measurement": "turnovers before the enzyme loses activity", "setting": "Turnover number", "value": "more than 30 turnovers"}, {"measurement": "substrate specificity (in words)", "setting": "[2]", "value": "highly favor the substrate for which it was designed"}]}]}
